Values belong to the binder of their own block, whether it stands above or below them.
B2: mouse MCAM expressed on transfected CHO cells (receptor, UniProt Q8R2Y2 24-648, looked up)
chain: VPGEEKQPVPTPDLVEAEVGSTALLKCGPSRASGNFSQVDWFLIHKERQILIFRVHQGKGQREPGEYEHRLSLQDSVATLALSHVTPHDERMFLCKSKRPRLQDHYVELQVFKAPEEPTIQANVVGIHVDRQELREVATCVGRNGYPIPQVLWYKNSLPLQEEENRVHIQSSQIVESSGLYTLKSVLSARLVKEDKDAQFYCELSYRLPSGNHMKESKEVTVPVFYPAEKVWVEVEPVGLLKEGDHVTIRCLTDGNPQPHFTINKKDPSTGEMEEESTDENGLLSLEPAEKHHSGLYQCQSLDLETTITLSSDPLELLVNYVSDVQVNPTAPEVQEGESLTLTCEAESNQDLEFEWLRDKTGQLLGKGPVLQLNNVRREAGGRYLCMASVPRVPGLNRTQLVSVGIFGSPWMALKERKVWVQENAVLNLSCEASGHPQPTISWNVNGSATEWNPDPQTVVSTLNVLVTPELLETGAECTASNSLGSNTTTIVLKLVTLTTLIPDSSQTTGLSTLTVSPHTRANSTSTEKKLPQPESKGVVIVAVIVCTLVLAVLGAALYFFYKKGKLPCGRSGKQEITLPPTRKSEFVVEVKSDKLPEEMALLQGSNGDKRAPGDQGEKYIDLRH
notes: whole, on cells; also called murine MCAM

Key:
[1] = target: T1, human MCAM (melanoma cell adhesion molecule) expressed on transfected CHO cells (human, UniProt P43121 24-646); assay: flow cytometry, human MCAM transfected cells mixed with CFSE-labelled untransfected cells
T1 construct: also called hMCAM; CD146
T1 chain: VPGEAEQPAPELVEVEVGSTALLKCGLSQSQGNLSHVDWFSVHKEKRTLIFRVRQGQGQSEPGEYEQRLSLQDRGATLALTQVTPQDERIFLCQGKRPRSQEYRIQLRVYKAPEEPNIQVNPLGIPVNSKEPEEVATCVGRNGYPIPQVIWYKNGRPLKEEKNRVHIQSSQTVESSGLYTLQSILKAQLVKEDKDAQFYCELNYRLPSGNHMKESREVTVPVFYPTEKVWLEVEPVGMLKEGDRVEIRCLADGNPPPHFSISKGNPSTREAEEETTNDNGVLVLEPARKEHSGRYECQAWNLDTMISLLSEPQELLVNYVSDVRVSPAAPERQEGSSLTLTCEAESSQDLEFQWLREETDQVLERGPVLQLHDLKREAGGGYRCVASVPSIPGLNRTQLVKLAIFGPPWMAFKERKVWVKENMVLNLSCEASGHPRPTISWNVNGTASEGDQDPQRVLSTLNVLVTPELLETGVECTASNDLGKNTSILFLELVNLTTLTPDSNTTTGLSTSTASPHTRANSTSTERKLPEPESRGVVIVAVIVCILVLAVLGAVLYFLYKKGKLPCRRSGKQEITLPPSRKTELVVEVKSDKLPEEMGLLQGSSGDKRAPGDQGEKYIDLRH

[2] = target: T2, Ig2 domain (mouse, UniProt Q8R2Y2); assay: ForteBio Octet Red, anti-human IgG Fc (AHC) biosensors loaded with mouse MCAM-hFc proteins (5 ug/ml), dipped into antibody (5 ug/ml) or SP2 media
T2 construct: isolated domain 2; also called Murine MCAM domain 2 (Ig2) with human IgG Fc tag
T2 sequence (Fc fusion chain, looked up): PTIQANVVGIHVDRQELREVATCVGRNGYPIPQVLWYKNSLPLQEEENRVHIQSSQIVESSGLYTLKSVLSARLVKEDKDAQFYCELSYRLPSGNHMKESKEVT
Text: (§1) The following protocol was used: ForteBio Domain Mapping Protocol. ForteBio anti-human IgG Fc biosensors were used to immobilize various mouse MCAMhFc domains including full length mouse MCAMhFc protein on to biosensor surface. These sensors were dipped into either clone 15 or 17 MCAM specific antibody for detection of binding to these domains or full length protein. After loading these samples into a black 96 well plate, the Octet Red was programmed as follows: 60 seconds for baseline #1; 180 seconds for loading various domains; 60 seconds for baseline #2; 180 seconds for association of antibody to domain; and 240 seconds for dissociation of antibody from domain.
(§2) 1. Mouse MCAMhFc final concentration @ 5 ug/ml [0466] 2. Antibody clone 15 or 17 @ 5 ug/ml [0467] 3. ForteBio anti-human IgG Fc Capture (AHC) biosensors for kinetics experiments, cat#18-5060 [0468] 4. […] 5. ForteBio Octet Red machine [0470] 6. Fresh tissue culture medium, DMEM with 20% FCS, was used as buffer for dilution
(§3) For FIGS. 10A-B, clones 15 and 17 were tested against the following protein samples (all have human IgG Fc tag): Murine MCAM; Human Fc full length protein; Murine MCAM domain 1 (Ig1); Murine MCAM domain 2 (Ig2); and Murine MCAM domain 1 and 2 (Ig1-2A).

[3] = target: T3, murine MCAM-Fc fusion protein (mouse, UniProt Q8R2Y2 24-563); assay: as above
T3 construct: extracellular domain; produced in CHO cells; also called mouse MCAM-Fc; mouse MCAMhFc; not shown: fused to human IgG
T3 sequence (looked up): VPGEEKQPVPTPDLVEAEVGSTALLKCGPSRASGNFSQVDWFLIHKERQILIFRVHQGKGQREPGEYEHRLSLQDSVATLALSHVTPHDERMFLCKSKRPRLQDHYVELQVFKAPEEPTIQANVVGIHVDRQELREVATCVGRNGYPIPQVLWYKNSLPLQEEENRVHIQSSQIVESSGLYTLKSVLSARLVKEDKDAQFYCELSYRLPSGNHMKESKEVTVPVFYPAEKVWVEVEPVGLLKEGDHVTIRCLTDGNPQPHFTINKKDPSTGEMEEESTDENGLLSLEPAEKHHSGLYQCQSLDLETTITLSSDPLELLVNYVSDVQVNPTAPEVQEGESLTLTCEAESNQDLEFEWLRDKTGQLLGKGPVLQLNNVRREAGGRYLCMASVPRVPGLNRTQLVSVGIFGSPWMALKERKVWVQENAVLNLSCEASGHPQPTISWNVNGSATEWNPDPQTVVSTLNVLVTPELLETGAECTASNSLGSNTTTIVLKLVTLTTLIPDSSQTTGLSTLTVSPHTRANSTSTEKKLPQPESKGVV
Text: as §1, §2, §3

[4] = target: T4, Murine MCAM domain 1 (Ig1) with human IgG Fc tag (mouse, UniProt Q8R2Y2 24-131, limits assumed); assay: ForteBio Octet Red, domain-hFc on anti-human IgG Fc sensor
T4 construct: domain: domain 1 (Ig1); also called MCAM Fc domain 1; Fc domain 1 alone; not shown: human IgG Fc tag
T4 sequence (looked up): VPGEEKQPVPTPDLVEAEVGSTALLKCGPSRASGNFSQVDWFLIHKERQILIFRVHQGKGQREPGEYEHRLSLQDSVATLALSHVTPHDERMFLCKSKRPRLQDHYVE
Text: as §1, §2

[5] = target: B2; assay: flow cytometry, mouse MCAM transfected cells mixed with CFSE-labelled untransfected cells
Experimental: For the generation of antibodies capable of binding to murine MCAM, MCAM-Fc was generated by fusing the extracellular domain of murine MCAM to human IgG and produced in CHO cells using standard techniques. Lou/M rats were immunized with 100 μg of MCAM-Fc protein in CFA (1:1 volume). Rats were boosted two times at two week intervals with MCAM-Fc protein in incomplete Freund's adjuvant (IFA) (1:1 volume). Hybridomas were generated from immunized rats using standard protocols and clones were selected by Clonepix. CHO cells were transfected with the full length murine MCAM gene and selected for stable expression using neomycin and standard techniques. Parental CHO cells (MCAM negative) were fluorescently labeled with carboxyfluorescein succinimidyl ester (CFSE) using standard techniques and mixed at a 1:1 ratio with unlabeled MCAM transfected CHO cells. Hybridoma supernatants were incubated with this mixture of cells for 30 minutes and binding of potential MCAM specific antibodies was detected with a fluorescently labeled anti-rat secondary antibody (Jackson Immuno) by flow cytometry.

[6] = target: T5, recombinant human laminin 511 (Biolamina) (human, UniProt O15230 36-3695; P07942 22-1786; P11047 34-1609); assay: flow cytometry, mouse MCAM CHO cells, pan-laminin antibody
T5 construct: negative control; also called laminin 10 (α5β1γ1)

[7] = target: T6, Recombinant human laminin-α4 (R&D systems) (human, UniProt Q16363-2 826-1816); assay: SPR, Biacore T200
T6 construct: also called laminin α-4 chain
T6 sequence (looked up): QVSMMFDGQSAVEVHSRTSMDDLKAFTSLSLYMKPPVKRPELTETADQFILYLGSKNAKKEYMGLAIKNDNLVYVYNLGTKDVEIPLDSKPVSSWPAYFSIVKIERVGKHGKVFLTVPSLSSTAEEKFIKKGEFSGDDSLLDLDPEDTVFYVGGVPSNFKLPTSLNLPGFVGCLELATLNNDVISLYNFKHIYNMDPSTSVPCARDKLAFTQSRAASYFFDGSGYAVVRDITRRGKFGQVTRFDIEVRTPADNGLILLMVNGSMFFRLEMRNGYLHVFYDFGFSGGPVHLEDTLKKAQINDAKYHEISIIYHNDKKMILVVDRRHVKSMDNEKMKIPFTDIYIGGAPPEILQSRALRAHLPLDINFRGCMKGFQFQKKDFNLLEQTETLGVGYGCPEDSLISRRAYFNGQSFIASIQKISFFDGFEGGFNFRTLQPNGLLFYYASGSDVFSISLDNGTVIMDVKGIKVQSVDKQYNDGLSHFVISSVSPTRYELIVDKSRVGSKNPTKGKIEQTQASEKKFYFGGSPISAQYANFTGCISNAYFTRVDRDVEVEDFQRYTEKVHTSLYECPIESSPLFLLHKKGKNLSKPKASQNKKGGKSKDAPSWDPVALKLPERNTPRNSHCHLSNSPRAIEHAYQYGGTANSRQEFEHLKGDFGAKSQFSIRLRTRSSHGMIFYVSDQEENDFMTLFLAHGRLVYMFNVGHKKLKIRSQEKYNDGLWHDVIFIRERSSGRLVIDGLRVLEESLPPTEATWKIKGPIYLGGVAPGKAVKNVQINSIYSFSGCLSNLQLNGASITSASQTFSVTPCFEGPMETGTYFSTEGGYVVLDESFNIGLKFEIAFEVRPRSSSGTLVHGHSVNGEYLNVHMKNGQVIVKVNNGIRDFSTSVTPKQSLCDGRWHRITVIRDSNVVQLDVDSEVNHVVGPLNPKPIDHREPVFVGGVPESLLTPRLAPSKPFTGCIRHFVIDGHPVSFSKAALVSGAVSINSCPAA

[8] = target: T5, recombinant human laminin 511 …; assay: SPR, Biacore T200

binding result [1]: no binding
binding result [2]: no binding (tested: 5 ug/ml)
binding result [3]: binds
binding result [4]: no binding (tested: 5 ug/ml)
binding result [5]: binds
B1: anti-MCAM monoclonal antibody clone 15 (antibody, V domains shown)
VH: EVRLVESGGGLVQPGKSMKLSCVASGFKFSNYYMSWVRQAPAKGLEWVASISDGGGDTFCRDLVKGRFTISRDNAKSTLYLQMDSLRPEDTATYYCARRGAAMGGVMDAWGQGTSVTVSS
VL: DIVMTQSPSSLAVSAGETVSIHCKSSQSLLYSGTQKNYLAWFQQKPGQSPKLLIFWASTRQSGVPDRFIGRGSGTDFTLTISGVQAEDLAIYYCQQYYDTLTDTFGAGTKLELKR
notes: rat monoclonal raised against murine MCAM-Fc; also called Anti-MCAM Clone 15; anti-mouse MCAM clone 15

Binder: B2
binding result [6]: no binding (tested: 10 µg/ml)

binding result [7]: no binding (tested: 5-175 nM)
binding result [8]: no binding (tested: 5-175 nM)
B3: human MCAM domain 1 (amino acids 19-129), Fc-tagged (Fc fusion, not shown: a dimerising Fc or GST)
chain: PRVAGVPGEAEQPAPELVEVEVGSTALLKCGLSQSQGNLSHVDWFSVHKEKRTLIFRVRQGQGQSEPGEYEQRLSLQDRGATLALTQVTPQDERIFLCQGKRPRSQEYRIQ
notes: also called MCAM Fc domain 1
